This assay deals with Vibrio cholerae type IVa pilus secretin PilQ, N-terminally deca-histidine tagged (Vibrio cholerae). As to the kind of experiment: cryo-EM structure.

Take “Vibrio cholerae type IVa pilus secretin PilQ, N-terminally deca-histidine tagged (natural protein)”: the stoichiometry N amounted to 14.

Usually stoichiometry N stands for the number of molecules, sites or subunits per partner or assembly.

The values above are taken from publication PMC7545093.
